Measured values from patent US20140348844A1 (UCB, published 2014).
Positions count from the first letter of the chain named. Values joined by “and” are separate entries in the source; they are usually repeats but may differ in a detail not shown here. Equal entries are not always repeated.

How the values were obtained:
toxin B (VPI 10463) [1] = biological target: T1, toxin B (VPI 10463) (Clostridium difficile strain VPI 10463, UniProt P18177 2-2366); assay: cell-based or functional assay
toxin B (VPI 10463) [2] = biological target: T1, toxin B (VPI 10463); assay: cell-based or functional assay; remark: listed apart in the source
TcdB binding (TcdB1234) [3] = biological target: T2, TcdB binding (TcdB1234) (Clostridium difficile ribotype 027, UniProt P18177 1833-2366); assay: SPR Biacore 3000, biotinylated TcdB1234 on streptavidin chip, antibody at 500 nM, saturating response
T2 construct: also called CROPs1,2,3,4 of Toxin B

TcdA ribotype 078 = TcdA ribotype 078 (Clostridium difficile ribotype 078); assay: cell-based or functional assay
TcdB binding (TcdB1234) [4] = biological target: T2, TcdB binding (TcdB1234); assay: SPR BIAcore 3000, Mab captured on anti-human Fc, TcdB1234 in solution, purified Mab 3 point titration
toxin B (VPI 10463) [5] = biological target: T1, toxin B (VPI 10463); assay: cell-based or functional assay; remark: listed apart in the source
[6] = biological target: TcdA purified from strain VPI10463 (Clostridium difficile strain VPI10463, UniProt P16154 1-2710); assay: cell-based or functional assay
TcdA from ribotype 027 = biological target: T3, TcdA from ribotype 027 (Clostridium difficile ribotype 027, UniProt P16154 1-2710); assay: estimated from SPR on TcdA sub-domains
T3 construct: also called TcdA ribotype 027; TcdA whole toxin

TcdA CROPS456 (TcdA456) = TcdA CROPS456 (TcdA456) (Clostridium difficile ribotype 027, UniProt P16154 2205-2608)

B1: CA164_1151.g4 (antibody, V domains shown)
VH: EVQLQESGPGLVKPSETLSLTCTVSGFSLTSYYVHWVRQPPGKGLEWMGCIRTGGNTEYQSEFKSRVTISRDTSKNQVSLKLSSVTAADTAVYYCARGNYGFAYWGQGTLVTVS
VL: AIQMTQSPSSLSASVGDRVTITCKASQNVGNNVAWYQHKPGKAPKLLIYYASNRFTGVPSRFTGGGYGTDFTLTISSLQPEDFATYYCQRVYQSTWTFGQGTKVEIK
notes: also called CA1151; CA1151.g4
For B1, the “IC50 (ng/ml), TcdB neutralisation on Caco-2 cells, toxin at LD80” value (shortened to “IC50 (ng/ml), TcdB neutralisation”) (toxin B (VPI 10463) [1]) was 182 ng/mL, the “Maximum neutralisation, TcdB LD75” value (toxin B (VPI 10463) [2]) was 45% and the “Maximum neutralisation, TcdB LD86” value (toxin B (VPI 10463) [2]) was 25%. For the same binder, the “Maximum neutralisation, TcdB LD90” value (toxin B (VPI 10463) [2]) was 20% and the “Binding Response (RU)” value (TcdB binding (TcdB1234) [3]) was 1230 RU.

B2: CA164_00922.g1 (antibody, V domains shown)
VH: EVQLVESGGGLVQPGGSLRLSCAASGFTISSYYMSWVRQAPGKGLEWIGIISSGGHFTWYANWAKGRFTISSDSTTVYLQMNSLRDEDTATYFCARAYVSGSSFNGYALWGQGTLVTVS
VL: DPVMTQSPSTLSASVGDRVTITCQASQSISNALAWYQQKPGKAPKLLIYSASSLASGVPSRFKGSGSGTEFTLTISSLQPDDFATYYCQYTHYSHTSKNPFGGGTKVEIK
In the case of B2, the “EC50 values (ng/ml) - TcdA ribotype 078, LD80” value (“EC50 values (ng/ml) … LD80” for short) (TcdA ribotype 078) is reported as 0.11 ng/mL and the “EC50 values (ng/ml) - TcdA ribotype 078, LDmax” value (“EC50 values (ng/ml) … LDmax” for short) (TcdA ribotype 078) is reported as 0.68 ng/mL.

B3: CA164_1134.g5 (antibody, V domains shown)
VH: EVQLQESGPGLVKPSETLSLTCTVSGFSLNSYTITWVRQPPGKGLEWIAAISGGGSTYFNSALKSRVTISRDTSKSQVSLKLSSVTAADTAVYYCTRPRWYPRSYFDYWGRGTLVTVS
VL: DVQLTQSPSFLSASVGDRVTITCKASKSISNHLAWYQEKPGKANKLLIHSGSTLQPGTPSRFSGSGSGTEFTLTISSLQPEDFATYYCQQYDEYPYTFGQGTRLEIK
notes: also called CA1134; CA164_01134.g5
With B3 the Kd (TcdB binding (TcdB1234) [4]) was 0.0481 nM and 0.048 nM, the koff (TcdB binding (TcdB1234) [4]) was 2.45e-05 s⁻¹ and the kon (TcdB binding (TcdB1234) [4]) was 509000 M⁻¹ s⁻¹. The “IC50 (ng/ml), TcdB neutralisation” value (toxin B (VPI 10463) [1]) was 8 ng/mL, the “Maximum neutralisation, TcdB LD75” value (toxin B (VPI 10463) [2]) was 45% and the “Maximum neutralisation, TcdB LD86” value (toxin B (VPI 10463) [2]) was 25%. For the same binder, the “Maximum neutralisation, TcdB LD90” value (toxin B (VPI 10463) [2]) was 15% and the “EC50(ng/ml), TcdB neutralisation on Caco-2 cells, constant toxin concentration” value (toxin B (VPI 10463) [5]) was > 1000 ng/mL.

B4: CA164_1099.g2 (antibody, V domains shown)
VH: B3 VH with N30Q, T35S, F59Y, S61L, A62P
VL: DVQLTQSPSFLSASVGDRVTITCKASKSISNHLAWYQEKPGKANKLLIHSGSTLQSGTPSRFSGSGSGTEFTLTISSLQPEDFATYYCQQYDEYPYTFGQGTRLEIKR
With B4 the “IC50 (ng/ml), TcdB neutralisation” value (toxin B (VPI 10463) [1]) was 2 ng/mL.

B5: CA164_00995.g1 (antibody, V domains shown)
VH: EVQLVESGGGLVQPGGSLRLSCTASGFSLSNYDMIWVRQAPGKGLEYIGFINTGGITYYASWAKGRFTISRDSSTVYLQMNSLRAEDTATYFCARVDDYIGAWGAGLWGQGTLVTVS
VL: DVVMTQSPSTLSASVGDRVTITCQASQSINNYFSWYQQKPGKAPKLLIYGAANLASGVPSRFKGSGSGTEYTLTISSLQPDDFATYSCQNNYGVHIYGAAFGGGTKVEIK
notes: also called CA995; CA164_0995.g1
For B5, the “EC50 (ng/ml), TcdA neutralisation on Caco-2 cells, TcdA at LD80” value [6] was 37.6 ng/mL, the “Valency of binding, TcdA, est.” value (TcdA from ribotype 027) was 1 and the Kd (TcdA CROPS456 (TcdA456)) was 0.119 nM. For the same binder, the koff (TcdA CROPS456 (TcdA456)) was 3.42e-05 s⁻¹ and the kon (TcdA CROPS456 (TcdA456)) was 287000 M⁻¹ s⁻¹.

B6: CA164_01000.g1 (antibody, V domains shown)
VH: EVQLVESGGGLIQPGGSLRLSCTVSGIDLSSDAVGWVRQAPGKGLEYIGIIATFDSTYYASWAKGRFTISKASSTTVYLQMNSLRAEDTATYFCARTGSWYYISGWGSYYYGMDLWGQGTLVTVS
VL: EIVMTQSPSTLSASVGDRVTITCQASQSIYSYLAWYQQKPGKAPKLLIYDASTLASGVPSRFKGSGSGTEFTLTISSLQPDDFATYYCQGNAYTSNSHDNAFGGGTKVEIK
With B6 the “EC50 values (ng/ml) … LD80” value (TcdA ribotype 078) was 2.04 ng/mL, the “EC50 values (ng/ml) - TcdA ribotype 078, LD90” value (TcdA ribotype 078) was 2.41 ng/mL and the “EC50 values (ng/ml) - TcdA ribotype 078, LD95” value (TcdA ribotype 078) was 5.03 ng/mL. For the same binder, the “EC50 values (ng/ml) … LDmax” value (TcdA ribotype 078) was 14.2 ng/mL.

B7: CA164_00997.g1 (antibody, V domains shown)
VH: EVQLVESGGGLVQPGGSLRLSCTVSGIDLSSHHMCWVRQAPGKGLEYIGVIYHFGSTYYANWATGRFTISKDSTTVYLQMNSLRAEDTATYFCARASIAGYSAFDPWGQGTLVTVS
VL: ALVMTQSPSSFSASTGDRVTITCQASQSISSYLSWYQQKPGKAPKLLIYRASTLASGVPSRFSGSGSGTEYTLTISCLQSEDFATYYCLGVYGYSNDDGIAFGGGTKVEIK
For B7, the “EC50 values (ng/ml) … LD80” value (TcdA ribotype 078) was 0.33 ng/mL, the “EC50 values (ng/ml) - TcdA ribotype 078, LD90” value (TcdA ribotype 078) was 0.64 ng/mL and the “EC50 values (ng/ml) - TcdA ribotype 078, LD95” value (TcdA ribotype 078) was 1.11 ng/mL. For the same binder, the “EC50 values (ng/ml) … LDmax” value (TcdA ribotype 078) was 2.57 ng/mL.
